Patent US20190169256A1

How the values were obtained:
Assay in all cases: cell-based or functional assay
[1] = biological target: Salmon tac3 receptor (salmon)
[2] = biological target: Tilapia tac3 receptor (tilapia)
[3] = biological target: Zebrafish tac3 receptor (zebrafish)

tilapia NKB (peptide)
luciferase activity (CRE-Luc, COS-7 cells transfected with salmon tac3r) [1]: 1.8 fold
luciferase activity (CRE-Luc reporter, COS-7 cells transfected with tilapia tac3 receptor) [2]: 1.8 fold

Salmon NKB (slNKB) (peptide)
EC50 of SRE-Luciferase activity (COS7 cells expressing slNKB receptor) [1]: 1.03 nM

zebrafish NKB (peptide)
CRE-LUC (COS-7 cells transfected with zebrafish tac3 receptor) [3]: > 3 fold
